In data set [1] the test system is HeLa Kyoto. Nature of the data set: thermal stability score vs G1/S (z-score of summed log2 fold changes over temperatures); higher = more thermally stable than in G1/S.
Data set [2] concerns HeLa Kyoto. Kind of data set: solubility in G1/S (NP-40 vs SDS abundance) (log2 ratio); higher = more soluble. The conditions noted are these: cell cycle stage: G1/S.
In data set [3] the test system is HeLa Kyoto. Kind of data set: melting temperature (median over replicates), in situ; higher = more thermally stable.
Data set [4] deals with HeLa Kyoto. Kind of data set: solubility change mitosis vs G1/S (difference of NP-40 vs SDS log2 ratios) (log2 ratio difference); higher = more soluble in mitosis.
Where [5] appears, read: cell cycle stage: early G1 (4.5 h after nocodazole release).
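Throughout, for melting temperature (median over replicates), in situ: HeLa Kyoto cells synchronized by double thymidine or nocodazole block, proteins quantified by TMT10plex mass spectrometry, three independent biological replicates.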
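Throughout, for solubility change mitosis vs G1/S (difference of NP-40 vs SDS log2 ratios): synchronized HeLa Kyoto cells (double thymidine block for G1/S, nocodazole release for mitosis), protein amounts in NP-40 versus SDS lysates quantified by mass spectrometry, three biological replicates.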
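Throughout, for solubility in G1/S (NP-40 vs SDS abundance): HeLa Kyoto cells arrested at G1/S by double thymidine block, proteins quantified by TMT10plex mass spectrometry in mild NP-40 versus SDS extracts, three biological replicates.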
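Throughout, for thermal stability score vs G1/S (z-score of summed log2 fold changes over temperatures): synchronized HeLa Kyoto cells, proteins quantified by TMT10plex mass spectrometry, three biological replicates, mitosis taken 0.5 h after nocodazole release, G1/S directly after double thymidine block.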

“MERHQPRLHHPAQGSAAGTPYPSSASLRGCRESKMPRRKGPQHPPPPSGPEEPGEKRPKFHLNIRTLTDDMLDKFASIRIPGSKKERPPLPNLKTAFASSDCSAAPLEMMENFPKPLSENELLELFEKMMEDMNLNEDKKAPLREKDFSIKKEMVMQYINTASKTGSLKRSRQISPQEFIHELKMGSADERLVTCLESLRVSLTSNPVSWVESFGHEGLGLLLDILEKLISGKIQEKVVKKNQHKVIQCLKALMNTQYGLERIMSEERSLSLLAKAVDPRHPNMMTDVVKLLSAVCIVGEESILEEVLEALTSAGEEKKIDRFFCIVEGLRHNSVQLQVACMQLINALVTSPDDLDFRLHIRNEFMRCGLKEILPNLKCIKNDGLDIQLKVFDEHKEEDLFELSHRLEDIRAELDEAYDVYNMVWSTVKETRAEGYFISILQHLLLIRNDYFIRQQYFKLIDECVSQIVLHRDGMDPDFTYRKRLDLDLTQFVDICIDQAKLEEFEEKASELYKKFEKEFTDHQETQAELQKKEAKINELQAELQAFKSQFGALPADCNIPLPPSKEGGTGHSALPPPPPLPSGGGVPPPPPPPPPPPLPGMRMPFSGPVPPPPPLGFLGGQNSPPLPILPFGLKPKKEFKPEISMRRLNWLKIRPHEMTENCFWIKVNENKYENVDLLCKLENTFCCQQKERREEEDIEEKKSIKKKIKELKFLDSKIAQNLSIFLSSFRVPYEEIRMMILEVDETRLAESMIQNLIKHLPDQEQLNSLSQFKSEYSNLCEPEQFVVVMSNVKRLRPRLSAILFKLQFEEQVNNIKPDIMAVSTACEEIKKSKSFSKLLELVLLMGNYMNAGSRNAQTFGFNLSSLCKLKDTKSADQKTTLLHFLVEICEEKYPDILNFVDDLEPLDKASKVSVETLEKNLRQMGRQLQQLEKELETFPPPEDLHDKFVTKMSRFVISAKEQYETLSKLHENMEKLYQSIIGYYAIDVKKVSVEDFLTDLNNFRTTFMQAIKENIKKREAEEKEKRVRIAKELAERERLERQQKKKRLLEMKTEGDETGVMDNLLEALQSGAAFRDRRKRTPMPKDVRQSLSPMSQRPVLKVCNHENQKVQLTEGSRSHYNINCNSTRTPVAKELNYNLDTHTSTGRIKAAEKKEACNVESNRKKETELLGSFSKNESVPEVEALLARLRAL [DIAPH3]”: the thermal stability score was determined as 1.77 in the data set with HeLa Kyoto [1] (setting [5]) and 3.55 in the data set with HeLa Kyoto [1] (cell cycle stage: mitosis). The “solubility in G1/S (log2)” value in the data set on HeLa Kyoto [2] amounted to 0.186. Besides, the melting temperature in the data set on HeLa Kyoto [3] (cell cycle stage: G1/S) is 46.8 °C; with HeLa Kyoto [3] (cell cycle stage: mitosis), 46.4 °C. Also, the “solubility change mitosis (log2)” value in the data set on HeLa Kyoto [4] was -0.183.
As for “MERKVLALQARKKRTKAKKDKAQRKSETQHRGSAPHSESDLPEQEEEILGSDDDEQEDPNDYCKGGYHLVKIGDLFNGRYHVIRKLGWGHFSTVWLSWDIQGKKFVAMKVVKSAEHYTETALDEIRLLKSVRNSDPNDPNREMVVQLLDDFKISGVNGTHICMVFEVLGHHLLKWIIKSNYQGLPLPCVKKIIQQVLQGLDYLHTKCRIIHTDIKPENILLSVNEQYIRRLAAEATEWQRSGAPPPSGSAVSTAPQPKPADKMSKNKKKKLKKKQKRQAELLEKRMQEIEEMEKESGPGQKRPNKQEESESPVERPLKENPPNKMTQEKLEESSTIGQDQTLMERDTEGGAAEINCNGVIEVINYTQNSNNETLRHKEDLHNANDCDVQNLNQESSFLSSQNGDSSTSQETDSCTPITSEVSDTMVCQSSSTVGQSFSEQHISQLQESIRAEIPCEDEQEQEHNGPLDNKGKSTAGNFLVNPLEPKNAEKLKVKIADLGNACWVHKHFTEDIQTRQYRSLEVLIGSGYNTPADIWSTACMAFELATGDYLFEPHSGEEYTRDEDHIALIIELLGKVPRKLIVAGKYSKEFFTKKGDLKHITKLKPWGLFEVLVEKYEWSQEEAAGFTDFLLPMLELIPEKRATAAECLRHPWLNS [SRPK1]”, the thermal stability score is 0.23 in the data set with HeLa Kyoto [1] (setting [5]) and -0.71 in the data set on HeLa Kyoto [1] (cell cycle stage: mitosis). Also, the “solubility in G1/S (log2)” value in the data set with HeLa Kyoto [2] was -0.411. For the same sequence, the melting temperature with HeLa Kyoto [3] (cell cycle stage: G1/S) was 51.7 °C; with HeLa Kyoto [3] (cell cycle stage: mitosis), 51.3 °C. Also, in the data set with HeLa Kyoto [4], the “solubility change mitosis (log2)” value was found to be 0.114.
In the case of “MERPDKAALNALQPPEFRNESSLASTLKTLLFFTALMITVPIGLYFTTKSYIFEGALGMSNRDSYFYAAIVAVVAVHVVLALFVYVAWNEGSRQWREGKQD [VMA21]”, the figures for the thermal stability score with HeLa Kyoto [1] (setting [5]) and with HeLa Kyoto [1] (cell cycle stage: mitosis) were -1.79 and -0.397, respectively. Moreover, the “solubility in G1/S (log2)” value with HeLa Kyoto [2] was -0.135. In addition, the melting temperature in the data set on HeLa Kyoto [3] (cell cycle stage: G1/S) was 55.6 °C; in the data set with HeLa Kyoto [3] (cell cycle stage: mitosis) it was 56.7 °C. Moreover, in the data set on HeLa Kyoto [4], the “solubility change mitosis (log2)” value is -0.124.
Turning to “MERPLCSHLCSCLAMLALLSPLSLAQYDSWPHYPEYFQQPAPEYHQPQAPANVAKIQLRLAGQKRKHSEGRVEVYYDGQWGTVCDDDFSIHAAHVVCRELGYVEAKSWTASSSYGKGEGPIWLDNLHCTGNEATLAACTSNGWGVTDCKHTEDVGVVCSDKRIPGFKFDNSLINQIENLNIQVEDIRIRAILSTYRKRTPVMEGYVEVKEGKTWKQICDKHWTAKNSRVVCGMFGFPGERTYNTKVYKMFASRRKQRYWPFSMDCTGTEAHISSCKLGPQVSLDPMKNVTCENGLPAVVSCVPGQVFSPDGPSRFRKAYKPEQPLVRLRGGAYIGEGRVEVLKNGEWGTVCDDKWDLVSASVVCRELGFGSAKEAVTGSRLGQGIGPIHLNEIQCTGNEKSIIDCKFNAESQGCNHEEDAGVRCNTPAMGLQKKLRLNGGRNPYEGRVEVLVERNGSLVWGMVCGQNWGIVEAMVVCRQLGLGFASNAFQETWYWHGDVNSNKVVMSGVKCSGTELSLAHCRHDGEDVACPQGGVQYGAGVACSETAPDLVLNAEMVQQTTYLEDRPMFMLQCAMEENCLSASAAQTDPTTGYRRLLRFSSQIHNNGQSDFRPKNGRHAWIWHDCHRHYHSMEVFTHYDLLNLNGTKVAEGHKASFCLEDTECEGDIQKNYECANFGDQGITMGCWDMYRHDIDCQWVDITDVPPGDYLFQVVINPNFEVAESDYSNNIMKCRSRYDGHRIWMYNCHIGGSFSEETEKKFEHFSGLLNNQLSPQ [LOXL2]”, the results for the thermal stability score with HeLa Kyoto [1] (setting [5]) and in the data set with HeLa Kyoto [1] (cell cycle stage: mitosis) were 2.38 and 4.28, respectively. In addition, the “solubility in G1/S (log2)” value in the data set on HeLa Kyoto [2] is -0.152. The melting temperature with HeLa Kyoto [3] (cell cycle stage: G1/S) was found to be 54.3 °C; with HeLa Kyoto [3] (cell cycle stage: mitosis) it was 54.7 °C. For the same sequence, the “solubility change mitosis (log2)” value in the data set with HeLa Kyoto [4] is -0.173.
